Experiments:
[1] = biological target: T1, human IL-33 (R&D systems) (human, UniProt O95760 112-270); assay: ELISA on coated human IL-33 (2 ug/mL), goat anti-human F(ab')2-HRP [panel 'Binding affinity to human IL-33']
T1 sequence (looked up): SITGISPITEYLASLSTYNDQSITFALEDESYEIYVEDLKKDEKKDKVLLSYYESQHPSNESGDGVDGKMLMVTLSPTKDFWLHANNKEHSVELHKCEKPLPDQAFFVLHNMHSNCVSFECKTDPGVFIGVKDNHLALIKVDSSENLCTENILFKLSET

[2] = biological target: T2, human IL-17 receptor subunit A (human, UniProt Q96F46 33-320); assay: ELISA, coated receptor; SM17 at 0.00064 µg/mL; well 1
T2 construct: also called IL17RA; hIL17RA

[3] = biological target: T3, human IL-17RB protein (recombinant, R&D systems) (human); assay: as above
T3 construct: Bought protein; also called hIL17RB
T3 sequence (Q9NRM6 whole entry, looked up): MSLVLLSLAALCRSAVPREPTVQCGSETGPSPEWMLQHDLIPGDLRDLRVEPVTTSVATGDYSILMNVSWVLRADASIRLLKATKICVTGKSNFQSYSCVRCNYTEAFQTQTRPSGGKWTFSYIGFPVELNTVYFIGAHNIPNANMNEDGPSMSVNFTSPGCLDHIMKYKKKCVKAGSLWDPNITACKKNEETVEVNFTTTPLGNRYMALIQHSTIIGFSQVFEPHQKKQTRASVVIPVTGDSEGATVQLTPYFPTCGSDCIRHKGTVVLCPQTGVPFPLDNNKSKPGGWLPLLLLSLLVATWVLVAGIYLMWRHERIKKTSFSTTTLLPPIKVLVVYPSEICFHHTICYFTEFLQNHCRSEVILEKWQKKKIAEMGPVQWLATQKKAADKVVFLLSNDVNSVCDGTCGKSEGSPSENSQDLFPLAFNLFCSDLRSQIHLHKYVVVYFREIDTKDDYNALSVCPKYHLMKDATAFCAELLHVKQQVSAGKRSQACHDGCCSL

[4] = biological target: T4, human IL-17 receptor subunit C (human, UniProt Q8NAC3-2 21-467, limits assumed); assay: as above
T4 construct: also called IL17RC; hIL17RC
T4 sequence (looked up): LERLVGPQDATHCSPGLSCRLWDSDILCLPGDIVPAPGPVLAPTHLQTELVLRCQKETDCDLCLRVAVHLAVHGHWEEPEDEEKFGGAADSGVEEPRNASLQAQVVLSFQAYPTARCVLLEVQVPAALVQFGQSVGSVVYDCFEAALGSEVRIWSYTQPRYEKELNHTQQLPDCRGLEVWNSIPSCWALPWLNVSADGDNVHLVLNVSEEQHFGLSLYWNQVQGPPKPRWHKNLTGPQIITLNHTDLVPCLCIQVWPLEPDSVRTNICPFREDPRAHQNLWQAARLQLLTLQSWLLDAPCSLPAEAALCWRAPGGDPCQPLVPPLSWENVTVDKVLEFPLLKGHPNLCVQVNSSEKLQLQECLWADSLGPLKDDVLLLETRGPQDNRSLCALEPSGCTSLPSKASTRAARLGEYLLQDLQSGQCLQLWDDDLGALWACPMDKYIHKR

[5] = biological target: T5, human IL-17 receptor subunit D (human, UniProt Q8NFM7 28-299, limits assumed); assay: as above
T5 construct: also called IL17RD; hIL 17RD
T5 sequence (looked up): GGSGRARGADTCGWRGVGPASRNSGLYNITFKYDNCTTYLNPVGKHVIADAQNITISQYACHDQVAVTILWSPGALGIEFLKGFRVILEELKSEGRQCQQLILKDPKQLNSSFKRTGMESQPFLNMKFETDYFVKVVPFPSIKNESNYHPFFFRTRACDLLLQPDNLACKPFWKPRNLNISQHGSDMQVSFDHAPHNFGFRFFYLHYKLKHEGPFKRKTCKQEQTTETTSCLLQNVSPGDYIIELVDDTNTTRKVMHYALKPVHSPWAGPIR

[6] = biological target: T6, human IL-17 receptor subunit E (human, UniProt Q8NFR9 24-454, limits assumed); assay: as above
T6 construct: also called hIL17RE
T6 sequence (looked up): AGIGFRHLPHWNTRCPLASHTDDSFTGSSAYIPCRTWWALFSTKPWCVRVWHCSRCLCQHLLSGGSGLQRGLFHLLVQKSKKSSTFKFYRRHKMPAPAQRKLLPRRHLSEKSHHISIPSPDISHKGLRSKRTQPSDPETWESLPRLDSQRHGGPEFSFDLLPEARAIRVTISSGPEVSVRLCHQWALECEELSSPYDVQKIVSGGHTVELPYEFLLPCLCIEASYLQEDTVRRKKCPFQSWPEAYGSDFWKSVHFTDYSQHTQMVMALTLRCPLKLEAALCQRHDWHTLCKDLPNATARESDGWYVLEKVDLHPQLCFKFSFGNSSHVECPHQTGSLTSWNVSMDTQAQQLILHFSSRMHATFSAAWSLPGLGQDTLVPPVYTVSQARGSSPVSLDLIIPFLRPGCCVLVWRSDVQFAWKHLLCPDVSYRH

[7] = biological target: T5, human IL-17 receptor subunit D; assay: ELISA, coated receptor; SM17 at 0.4 µg/mL; well 1
[8] = biological target: T2, human IL-17 receptor subunit A; assay: ELISA, coated receptor; SM17 at 0.0032 µg/mL; well 2
[9] = biological target: T3, human IL-17RB protein (recombinant, R&D …); assay: as above
[10] = biological target: T4, human IL-17 receptor subunit C; assay: as above
[11] = biological target: T5, human IL-17 receptor subunit D; assay: as above
[12] = biological target: T6, human IL-17 receptor subunit E; assay: as above

B1: SM17 (antibody, human IgG4 S228P, kappa, V domains shown)
VH: QVQLVQSGAEVKKPGASVKVSCKASGYTFISYWMNWVRQAPGQGLEWMGRIDPYDSEIQYNQKFKDRVTMTRDTSISTAYMELSRLRSDDTAVYYCARSGGFDWFAYWGQGTLVTVSS
VL: DIQMTQSPSSLSASVGDRVTITCRASENINSNLAWYQQKPGKAPKLLLYDVTNLADGVPSRFSGSGSGTDYTLTISSLQPEDFATYYCQHFWGPPYTFGGGTKVEIKR
notes: other paragraphs and claim 15 call the same entries VH and VL; also called humanized anti-IL17RB monoclonal antibody
binding result [1]: no binding | OD 450 nm Absorption [2]: 0 OD450 | OD 450 nm Absorption [3]: 0.13 OD450 | OD 450 nm Absorption [4]: 0.13 OD450 | OD 450 nm Absorption [5]: 0.08 OD450 | OD 450 nm Absorption [6]: 0.09 OD450 | OD 450 nm Absorption [7]: 0.22 OD450 | OD 450 nm Absorption [8]: -0.03 OD450 | OD 450 nm Absorption [9]: 0.07 OD450 | OD 450 nm Absorption [10]: -0.04 OD450 | OD 450 nm Absorption [11]: -0.04 OD450 | OD 450 nm Absorption [12]: -0.02 OD450

From patent US20240409647A1 (SINOMAB BIOSCIENCE, published 2024)
